We go through 5 molecules from patent JP2005330292A (dated 2005).

The target in experiment [1] is T1, ヒト組織因子(TF)(ヒト膀胱癌細胞J82上に発現) (human, UniProt P13726 33-295).
T1 construct: whole, on cells; Target of the cell ELISA; also called ヒトTF; 抗原
Put plainly: cell ELISA on fixed J82 cells; chimeric antibody as the reference.

Experiment [2] concerns the target T2, 可溶型ヒトTF(アミノ酸配列1-219のC末端にFLAGペプチドを連結、CHO細胞発現) (human, UniProt P13726 33-251).
T2 construct: also called shTF; 可溶型TF
Put plainly: dot blot of shTF on nitrocellulose: native, 8 M urea-denatured, and 8 M urea + 5 mM DTT.

The target in experiment [3] is T1, ヒト組織因子(TF)(ヒト膀胱癌細胞J82上に発現). The experiment can be described thus: cell ELISA on fixed J82 cells.

B1: H鎖キメラ/L鎖キメラ抗体(キメラATR-5抗体) (antibody, V domains shown)
VH: EVQLQQSGTNLVRPGALVKLSCKGSGFNIKDYYMHWVKQRPEQGLEWIGGNDPANGHSMYDPKFQGKASITADTSSNTAYLQLSSLTSEDTAVYFCARDSGYAMDYWGQGTSVTVSS
VL: DIKMTQSPSSMYASLGERVTITCKASQDIKSFLSWYQQKPWKSPKTLIYYATSLADGVPSRFSGSGSGQDYSLTINNLESDDTATYYCLQHGESPYTFGGGTKLEIK
notes: Mouse ATR-5 V regions joined to human C regions; Both an IgG1 (N5KG1(V)) and an IgG4 (N5KG4P) kappa vector were built; also called ch-ch; chATR-5
Turning to B1, the binding result in experiment [1] and in experiment [2] was “binds” each time.

B2: H鎖ヒト型化バージョンc/L鎖キメラ抗体 (antibody, V domains shown)
VH: QVQLLESGAVLARPGTSVKISCKASGFNIKDYYMHWVKQRPGQGLEWIGGNDPANGHSMYDPKFQGRVTMLVDTSKNQFSLRLSSVTAADTAVYYCARDSGYAMDYWGQGTLVTVSS
VL: DIKMTQSPSSMYASLGERVTITCKASQDIKSFLSWYQQKPWKSPKTLIYYATSLADGVPSRFSGSGSGQDYSLTINNLESDDTATYYCLQHGESPYTFGGGTKLEIK
notes: Human IgG4 kappa (vector N5KG4P); also called c-ch
For the molecule B2, the binding result in experiment [3] is given as “binds”.

B3: H鎖ヒト型化バージョンb/L鎖ヒト型化バージョンb抗体 (antibody, V domains shown)
VH: QVQLLESGAVLARPGTSVKISCKASGFNIKDYYMHWVKQRPGQGLEWIGGNDPANGHSMYDPKFQGRVTITADTSTNTAYMELSSLRSEDTAIYYCARDSGYAMDYWGQGTLVTVSS
VL: DIQMTQSPSSLSASVGDRVTITCKASQDIKSFLSWYQQKPGKAPKLLIYYATSLADGVPSRFSGSGSGTDYTLTISSLQPEDFATYYCLQHGESPYTFGGGTKVEIK
notes: Human IgG4 kappa (vector N5KG4P); also called b-b; bb
For B3, the binding result in experiment [3] and in experiment [2] was “binds” throughout.

B4: H鎖ヒト型化バージョンi/L鎖ヒト型化バージョンb抗体 (antibody, V domains shown)
VH: QVQLLESGAVLARPGTSVKISCKASGFNIKDYYMHWVKQRPGQGLEWIGGNDPANGHSMYDPKFQGRVTITADTSTSTVFMELSSLRSEDTAVYYCARDSGYAMDYWGQGTLVTVSS
VL: DIQMTQSPSSLSASVGDRVTITCKASQDIKSFLSWYQQKPGKAPKLLIYYATSLADGVPSRFSGSGSGTDYTLTISSLQPEDFATYYCLQHGESPYTFGGGTKVEIK
notes: Human IgG4 kappa (vector N5KG4P); also called i-b; ib
In the case of B4, the binding result in experiment [3] and in experiment [2] was “binds” in each case.

B5: H鎖ヒト型化バージョンi/L鎖ヒト型化バージョンb2抗体 (antibody, V domains shown)
VH: QVQLLESGAVLARPGTSVKISCKASGFNIKDYYMHWVKQRPGQGLEWIGGNDPANGHSMYDPKFQGRVTITADTSTSTVFMELSSLRSEDTAVYYCARDSGYAMDYWGQGTLVTVSSAS
VL: DIQMTQSPSSLSASVGDRVTITCKASQDIKSFLSWYQQKPEKAPKSLIYYATSLADGVPSRFSGSGSGTDYTLTISSLQPEDFATYYCLQHGESPYTFGGGTKVEIK
notes: Human IgG4 kappa (vector N5KG4P); also called i-b2; ib2
For B5, the binding result in experiment [3] and in experiment [2] was “binds” in each case.
